Each block holds one molecule with its values, some of them ahead of it.
How the values were obtained:
GST-Sed5H2 (yeast) = GST-Sed5H2 (yeast) (UniProt Q01590); experiment: pull-down
GST-Sed5H1 + 2 (yeast) = GST-Sed5H1 + 2 (yeast) (UniProt Q01590); experiment: pull-down
GST-Sed5H1 (yeast) = GST-Sed5H1 (yeast) (UniProt Q01590); experiment: pull-down
[1] = target: yeast COG complex (purified from TAP-yCog2 cells) (yeast, UniProt P53079;P53271;P40094;Q06096;P53951;P53959;P53195;Q04632); experiment: pull-down
[2] = target: rat Cog3p (rat (endogenous in rat liver Golgi membranes)); experiment: co-IP

B3: Golgi matrix protein GM130 (rat liver Golgi) (natural protein)
chain: MWPPRFPPPRPGMSEETRQSKLAAAKKKLREYQQKNSPGVPAGAKKKKKIKNGHSPERTSASDCQSAENVPTDHTAPAPPSTAAATMFLGVVPSPDADLIQSHDAGNCSNLMEETKTFSSTESLRQLSQQLNGLVSESTSYINGEGLTSSNMKELESRYQELAVALDSSYVTNKQLSSTIEELKQQNQDTLDQLEKEKKDYQQKLAKEQGALREQLQVHIQTIGILVSEKAELQTALAHTQQAARQKAGESEDLASRLQSSRQRVGELERTLSTVSTQQKQADRYNKDLTKERDALKLELYKNGKSNEDLRQQNSELEEKLRVLVAEKAAAQLGAEELQKKLEMSELLLQQFSSQSEASGSNEQLQQAMEERAQLESHVGQLMESLKQLQVERDQYAENLKGESAMWQQRVQQMAEQVHALKEEKEQRESQVQELEASLAELRSQMEEPPPPEPPTGPSEAEERLQGEVEQLQKELEGLTGQLRAQVQDNESLSHLNREQEGRLLELEREAQHWSEQAEERKQILESMQSDRTTISRALSQNRELKEQLAELQNGFVRLTNENMEITSALQSEQHVKKELARKLGELQERLGELKETVELKSQEAQGLQEQRDQCLSHLQQYAAAYQQHLTAYEQLTSEKEALHKQLLLQTQLMDQLQHEEVQGKMAAEMARQELQEAQERLKASSQENQQLQAQLSLLVLPGEDMDQEEQDEEVPQPSLTIPEDLVSREAMVAFCNAAIARAEEEQARLRVQLREQKARCRSLAHLAAPVQSKLEKEAVVPRDMGDSVSEESNQALHVAMEKLQNRFLEVMQEKVELKERVEELEHCCIQLSGETDTIGEYIALYQNQRAVLKARHLEKEEYISRLAQDKEEMKVKLLELQELVLRLVNERNEWQGKFLAVSQNPADVPAPVPTGSQEFGAADQQGDLREVSLADDTEPAQGEAGVPAPQENPTAQQIMQLLREIQNPQERPGLGSNPCIPFFYRADENDEVKIMVI
percent coimmunoprecipitated [2]: 10%

B4: GS28 (rat liver Golgi) (natural protein)
chain: MAAGTSNYWEDLRKQARQLENELDLKLVSFSKLCTSYSHSSARDGGRDRYSSDTTPLLNGSSQDRMFETMAIEIEQLLARLTGVNDKMAEYTHSAGVPSLNAALMHTLQRHRDILQDYTHEFHKTKANFMAIRERENLMGSVRKDIESYKSGSGVNNRRTELFLKEHDHLRNSDRLIEETISIAMATKENMTSQRGMLKSIHSKMNTLANRFPAVNSLIQRINLRKRRDSLILGGVIGICTILLLLYAFH
percent coimmunoprecipitated [2]: < 4%

B6: Syntaxin5a (rat liver Golgi) (natural protein)
chain: MSCRDRTQEFLSACKSLQSRQNGIQTNKPALHATRQCSEFTLMARRIGKDLSNTFAKLEKLTILAKRKSLFDDKAVEIEELTYIIKQDINSLNKQIAQLQDFVRAKGSQSGRHLQTHSNTIVVSLQSKLASMSNDFKSVLEVRTENLKQQRNRREQFSRAPVSALPLAPNNLGGGPIVLGGESRASRDVAIDMMDPRTSQQLQLIDEQDSYIQSRADTMQNIESTIVELGSIFQQLAHMVKEQEETIQRIDENVLGAQLDVEAAHSEILKYFQSVTSNRWLMVKIFLILIVFFIIFVVFLA
percent coimmunoprecipitated [2]: < 4%

Now from value to molecule:

fold less efficient binding than to the cytosolic portion of Sed5p and Sed5H3 (GST-Sed5H2 (yeast)): 4 fold
fold less efficient binding than to the cytosolic portion of Sed5p and Sed5H3 (GST-Sed5H1 + 2 (yeast)): 4 fold
fold less efficient binding than to the cytosolic portion of Sed5p and Sed5H3 (GST-Sed5H1 (yeast)): 4 fold
Molecule: yeast COG complex (purified from TAP-yCog2 cells), P53079;P53271;P40094;Q06096;P53951;P53959;P53195;Q04632

binding result [1]: binds
B1: GST-Sed5p, cytosolic portion (domain or fragment)
chain: MNIKDRTSEFQQSVLSYKKRNKNFREQQRERLQEKESENFANNTTGNGKSVSEFQKKASGIAHEISSTAQLLSKLAVLAKRKPMFNDNPVEIAELSFLIKRKIYAIEQSLVQLSQLKKTDVNGNTSNQSSKQPSAVQHSKNVVNLLNTQMKNISGSFKDVLEERQRLEMANKDRWQKLTTDTGHAPADDQTQSNHAADLTTYNNSNPFMTSLLDESSEKNNNSSNQGELSFPQNDSQLMLMEEGQLSNNVYLQERNRAVETIESTIQEVGNLFQQLASMVQEQGEVIQRIDANVDDIDLNISGAQRELLKYFDRIKSNR

percent coimmunoprecipitated [2]: 4%
B2: vesicle-tethering factor p115 (rat liver Golgi) (natural protein)
chain: MNFLRGVMGGQSAGPQHTEAETIQKLCDRVASSTLLDDRRNAVRALKSLSKKYRLEVGIQAMEHLIHVLQTDRSDSEIIAYALDTLYNIISNDEEEEVEENSTRQSEDLGSQFTEIFIKQPENVTLLLSLLEEFDFHVRWPGVRLLTSLLKQLGPPVQQIILVSPMGVSKLMDLLADSREIIRNDGVLLLQALTRSNGAIQKIVAFENAFERLLDIITEEGNSDGGIVVEDCLILLQNLLKNNNSNQNFFKEGSYIQRMKAWFEVGDENPGWSAQKVTNLHLMLQLVRVLVSPTNPPGATSSCQKAMFQCGLLQQLCTILMATGIPADILTETINTVSEVIRGCQVNQDYFASVNAPSNPPRPAIVVLLMSMVNERQPFVLRCAVLYCFQCFLYKNEKGQGEIVATLLPSTIDATGNSVSAGQLLCGGLFSTDSLSNWCAAVALAHALQGNATQKEQLLRVQLATSIGNPPVSLLQQCTNILSQGSKIQTRVGLLMLLCTWLSNCPIAVTHFLHNSANVPFLTGQIAENLGEEEQLVQGLCALLLGISIYFNDNSLENYTKEKLKQLIEKRIGKENYIEKLGFISKHELYSRASQKPQPNFPSPEYMIFDHEFTKLVKELEGVITKAIYKSSEEDKKEEEVKKTLEQHDNIVTHYKNMIREQDLQLEELKQQVSTLKCQNEQLQTAVTQQASQIQQHKDQYNLLKVQLGKDNHHQGSHSDGAQVNGIQPEEISRLREEIEELRSHQVLLQSQLAEKDTVIENLRSSQVSGMSEQALATCSPRDAEQVAELKQELSALKSQLCSQSLEITRLQTENSELQQRAETLAKSVPVEGESELVTAAKTTDVEGRLSALLQETKELKNEIKALSEERTAIQKQLDSSNSTIAILQTEKDKLYLEVTDSKKEQDDLLVLLADQDQKILSLKSKLKDLGHPVEEEDESGDQEDDDDELDDGDRDQDI

binding result [1]: binds
B5: GST-Sed5H3 (SNARE domain of Sed5p) (domain or fragment)
chain: FMTSLLDESSEKNNNSSNQGELSFPQNDSQLMLMEEGQLSNNVYLQERNRAVETIESTIQEVGNLFQQLASMVQEQGEVIQRIDANVDDIDLNISGAQRELLKYFDRIKSNRWLAAK

From publication PMC2140037 (The Journal of Cell Biology, 2007)
